This data set has as its target Sp1 (UniProt P08047 P08047:2-785). Briefly: EMSA; 5 mM DTT, 1 ug/ml poly(dI-dC); binding reduced 20% by GST-huntingtin Q20 and 70% by Q51; competed by 50-fold unlabelled probe. The note with it: tags: purified Sp1, Promega; label: labeled (autoradiography). The procedure: Chem. 273:26218, 1998) except that 5 mM DTT and 1 μg/ml poly(dI-dC) were used. GST-huntingtin fusions (0.2 μg/ul) were a gift of E. Wanker and were purified as described (J. S. Steffan et al., Nature 413:739, 2001). An approximate 1:1 ratio of purified proteins was used. Coomassie blue staining and Western blotting were used to examine the purified proteins.
Binding of Sp1 to a labeled consensus Sp1 site is shown in lane 1, and competition with a 50-fold molar excess of unlabelled probe is shown in lane 2 (plus sign). Incubation of Sp1 in the presence of GST-huntingtin with 20 glutamines (Qs) led to a 20% reduction in Sp1 binding (lane 3), whereas huntingtin with 51 Qs inhibited Sp1 binding by 70% (lane 4). The Sp1/DNA complex was identified with anti-Sp1 and is indicated by an arrow in all panels. […] Primary striatal cells were transfected with wild-type (HttQ 17) or mutant (HttQ75) huntingtin. EMSA was performed with a labeled D2 promoter fragment containing a Sp1 binding site. […] In competition experiments, a 100-fold molar excess of double-stranded nonradioactive oligonucleotide was used (lanes 2 and 4). […] EMSA was performed with nuclear extracts isolated from presymptomatic grade 1 and grade 4 HD brain tissue as described above herein. […] Competition experiments were performed as in (FIG. 2B) (lane 2). […] EMSA was performed as in FIG. 2C. […]
For orientation: Mobility shift assays separate free from complexed probe on a gel.

Sequence of Sp1 (P08047 2-785, one chain of several): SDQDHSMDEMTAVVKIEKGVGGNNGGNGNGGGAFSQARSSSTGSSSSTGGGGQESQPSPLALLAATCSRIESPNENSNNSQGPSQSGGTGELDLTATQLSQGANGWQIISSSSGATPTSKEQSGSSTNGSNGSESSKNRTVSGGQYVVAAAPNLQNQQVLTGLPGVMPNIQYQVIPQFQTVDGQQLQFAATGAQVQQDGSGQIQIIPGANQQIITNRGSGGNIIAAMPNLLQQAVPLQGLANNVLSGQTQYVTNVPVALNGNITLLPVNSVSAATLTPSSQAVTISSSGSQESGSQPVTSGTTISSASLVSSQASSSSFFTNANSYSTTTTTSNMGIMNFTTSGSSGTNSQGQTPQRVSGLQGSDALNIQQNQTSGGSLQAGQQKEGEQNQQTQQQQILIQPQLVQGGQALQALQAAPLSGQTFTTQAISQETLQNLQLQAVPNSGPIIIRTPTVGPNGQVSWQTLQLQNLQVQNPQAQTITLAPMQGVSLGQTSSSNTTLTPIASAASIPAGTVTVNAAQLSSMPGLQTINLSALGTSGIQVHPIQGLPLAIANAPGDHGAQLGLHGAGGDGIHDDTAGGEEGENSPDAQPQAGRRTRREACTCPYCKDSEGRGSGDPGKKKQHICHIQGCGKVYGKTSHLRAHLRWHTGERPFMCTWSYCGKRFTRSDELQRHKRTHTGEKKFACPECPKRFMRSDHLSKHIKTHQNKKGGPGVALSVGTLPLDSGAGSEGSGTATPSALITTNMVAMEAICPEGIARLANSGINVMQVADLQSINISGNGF

B1: Sp1 consensus site probe (dsDNA)
DNA 1: ATTCGATCGGGGCGGGGCGAGC
DNA 2: GCTCGCCCCGCCCCGATCGAAT
B1: the binding result was “binds”.
